# Data reported in US20050113304A1.
# Biological target: Botulinum toxin B (UniProt P10844)
# Test: cell-based or functional assay
Substance,"inhibition of BttxB endoprotease activity (cleavage of VAMP2 55-94, RP-HPLC)",inhibition of BttxB activity relative to B-I (% as effective as B-I)
Buforin I (peptide),1000 nM,–
Buforin II (peptide),–,25
